Data on two molecules can be found in PMC3240954 (Scientific Reports, 2011).

The target in one data set is H6-WhiA full-length (Streptomyces coelicolor, UniProt Q9Z515 1-328). Kind of data set: competition.
For data set [1], the target named is WhiA (S. coelicolor), full-length, untagged (S. coelicolor, UniProt Q9Z515 1-328). Briefly: pull-down.
Sequence of WhiA (S. coelicolor), full-length, untagged (Q9Z515 whole entry): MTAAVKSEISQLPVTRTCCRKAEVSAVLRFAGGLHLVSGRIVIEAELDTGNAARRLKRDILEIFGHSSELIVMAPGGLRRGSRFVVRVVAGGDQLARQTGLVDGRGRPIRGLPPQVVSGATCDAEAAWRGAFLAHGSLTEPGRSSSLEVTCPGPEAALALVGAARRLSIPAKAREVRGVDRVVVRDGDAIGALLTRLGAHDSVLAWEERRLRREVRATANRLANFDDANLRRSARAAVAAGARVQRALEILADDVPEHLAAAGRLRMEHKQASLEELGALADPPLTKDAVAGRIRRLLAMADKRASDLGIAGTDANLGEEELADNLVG

Sequence of H6-WhiA full-length (Q9Z515 whole entry): as above

B1: -22/A (dsDNA)
DNA 1: CGTCATTTGGAGGTTTTGGGACAACACGCCCCTAAACTCGCCCT
DNA 2: AGGGCGAGTTTAGGGGCGTGTTGTCCCAAAACCTCCAAATGACG
On to B1, for which, in the data set with H6-WhiA full-length, the binding result is given as “binds”.

B2: His-tagged WhiG (H6-WhiG) (natural protein, UniProt P17211 1-280, looked up)
chain: MPQHTSGSDRAAIPPAARDGGSVRPPAPSTLDELWRSYKTTGDERLREQLILHYSPLVKYVAGRVSVGLPPNVEQADFVSSGVFGLIDAIEKFDVDREIKFETYAITRIRGAMIDELRALDWIPRSVRQKARNVERAYATLEARLRRTPSESEVAVEMGIAVEDLHAVFSQLSLANVVALEELLHAGGEGGGRLSLMDTLEDTAADNPVEVAEDRELRRLLARAINTLPEREKTVVTLYYYEGLTLAEIGNVLGVTESRVSQIHTKSVLQLRAKLAGFGR
Take B2: the binding result in data set [1] is reported as “binds”.
